According to patent publication US20240132581A1 (BEIJING WISDOMAB BIOTECHNOLOGY, published 2024):

T1: extracellular domain of human TSLP receptor (hTSLPR-ECD) (human (Homo sapiens), UniProt Q9HC73 23-231)
T1 sequence: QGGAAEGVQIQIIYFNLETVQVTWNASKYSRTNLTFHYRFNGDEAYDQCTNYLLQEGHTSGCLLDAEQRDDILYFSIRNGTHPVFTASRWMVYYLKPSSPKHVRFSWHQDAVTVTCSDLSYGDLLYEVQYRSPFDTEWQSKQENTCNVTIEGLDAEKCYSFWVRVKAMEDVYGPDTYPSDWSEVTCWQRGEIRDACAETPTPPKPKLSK

B1: H1A10×H3B10-M1+L3E8-M7 BsAb (anti-human TSLP bispecific antibody) (bispecific antibody, human IgG1, kappa)
heavy 1: QVQLVQSGAEVKKPGASVKVSCKASGYAFSNYWMNWVRQAPGQGLEWMGQIFPGDSDTDYDQKFQGRVTMTRDTSTSTVYMELSSLRSEDTAVYYCARAGYYRGYYAMDYWGQGTTVTVSSASTKGPSVFPLAPSSKSTSGGTAALGCLVKDYFPEPVTVSWNSGALTSGVHTFPAVLQSSGLYSLSSVVTVPSSSLGTQTYICNVNHKPSNTKVDKRVEPKSCDKTHTCPPCPAPEFEGGPSVFLFPPKPKDTLMISRTPEVTCVVVDVSHEDPEVKFNWYVDGVEVHNAKTKPREEQYNSTYRVVSVLTVLHQDWLNGKEYKCKVSNKALPASIEKTISKAKGQPREPQVYTLPPCREEMTKNQVSLWCLVKGFYPSDIAVEWESNGQPENNYKTTPPVLDSDGSFFLYSKLTVDKSRWQQGNVFSCSVMHEALHNHYTQKSLSLSPGK
heavy 2: QVTLKESGPVLVKPTETLTLTCTVSGFSLSSYDISWIRQPPGKALEWLGVIWSEGGTSYSTSLKSRLTISKDTSKSQVVLTMTNMDPVDTATYYCARDSDDGYLNWGQGTLVTVSSASTKGPSVFPLAPSSKSTSEGTAALGCLVKDYFPEPVTVSWNSGALTSGVHTFPAVLQSSGLYSLSSVVTVPSSSLGTQTYICNVDHKPSNTKVDKTVEPKSCDKTHTCPPCPAPEFEGGPSVFLFPPKPKDTLMISRTPEVTCVVVDVSQEDPEVQFNWYVDGVEVHNAKTKPREEQYNSTYRVVSVLTVLHQDWLNGKEYKCKVSNKALPASIEKTISKAKGQPREPQVCTLPPSQEEMTKNQVSLSCAVKGFYPSDIAVEWESNGQPENNYKTTPPVLDSDGSFFLVSKLTVDKSRWQEGNVFSCSVMHEALHNHYTQKSLSLSPGK
light: EIVMTQSPATLSVSPGERATLSCSVSSSISSSNLHWYQQKPGQAPRPWIYGTSNLASGIPARFSGSGSGTEFTLTISSVQAEDFAVYYCQQWSSYPLTFGQGTKLEIKRTVAAPSVFIFPPSDEQLKSGTASVVCLLNNFYPREAKVQWKVDNALQSGNSQESVTEQDSKDSTYSLSSTLTLSKADYEKHKVYACEVTHQGLSSPVTKSFNRGEC
notes: also called bispecific antibody H1A10×H3B10-M1+L3E8-M7; bispecific antibody H1A10×H3B10-M1
B2: H3B10-M1+L3E8-M7 (humanized monoclonal antibody) (antibody, V domains shown)
VH: QVTLKESGPVLVKPTETLTLTCTVSGFSLSSYDISWIRQPPGKALEWLGVIWSEGGTSYSTSLKSRLTISKDTSKSQVVLTMTNMDPVDTATYYCARDSDDGYLNWGQGTLVTVSS
VL: EIVMTQSPATLSVSPGERATLSCSVSSSISSSNLHWYQQKPGQAPRPWIYGTSNLASGIPARFSGSGSGTEFTLTISSVQAEDFAVYYCQQWSSYPLTFGQGTKLEIK
notes: Expressed as a whole antibody
B3: H1A10+L3E8-M7 (humanized monoclonal antibody) (antibody, V domains shown)
VH: QVQLVQSGAEVKKPGASVKVSCKASGYAFSNYWMNWVRQAPGQGLEWMGQIFPGDSDTDYDQKFQGRVTMTRDTSTSTVYMELSSLRSEDTAVYYCARAGYYRGYYAMDYWGQGTTVTVSS
VL: B2 VL
notes: Expressed as a whole antibody
B4: hTSLP1-m-mFc (Fc fusion)
chain: YDFTNCDFEKIKAAYLSTISKDLITYMSGTKSTEFNNTVSCSNRPHCLTEIQSLTFNPTAGCASLAKEMFAMKTKAALAIWCPGYSETQINATQAMKKVTTNKCLEQVSQLQGLWRRFNRPLLKQQPRGPTIKPCPPCKCPAPNLLGGPSVFIFPPKIKDVLMISLSPIVTCVVVDVSEDDPDVQISWFVNNVEVHTAQTQTHREDYNSTLRVVSALPIQHQDWMSGKEFKCKVNNKDLPAPIERTISKPKGSVRAPQVYVLPPPEEEMTKKQVTLTCMVTDFMPEDIYVEWTNNGKTELNYKNTEPVLDSDGSYFMYSKLRVEKKNWVERNSYSCSVVHEGLHNHHTTKSFSRTPGK
notes: also called recombinant protein hTSLP1-m-mFc

Legend:
[1] = target: cynomolgus monkey TSLP (mfTSLP) (cynomolgus monkey (Macaca fascicularis)); assay: SPR Biacore X100 as in Example 3.1, antibody captured, mfTSLP as analyte
[2] = target: T2, hTSLP:hTSLPR complex (hTSLP1-m-mFc with hTSLPR-ECD bound, formed on the chip) (human (Homo sapiens), UniProt Q9HC73 23-231); assay: SPR (Biacore T200): chip surface with hTSLP1-m-mFc captured by anti-mFc antibody and loaded with hTSLPR-ECD, antibody at 50 µg/mL injected before hIL-7Rα-ECD [continued) D]
T2 construct: also called TSLP:TSLPR complex
Protocol: (§1) Two molecules were sequentially injected using a double injection mode of Biacore T200. […] Each of the molecules was injected for 60 s. The surface of the chip was regenerated at the end of the injection by injecting 10 mM glycine-HCl (pH 1.7) at 10 μL/min for 30 s. The Y-axis reporting points for the double baselines were zeroed using Biacore T200 evaluation software version 3.0, and then the RU values were plotted against times using GraphPad software.

[3] = target: B4; assay: SPR (Biacore T200): hTSLP1-m-mFc captured (about 80 RU) by anti-mFc antibody on CM5, antibody at 50 µg/mL [continued) E]
Protocol: (§2) The recombinant protein hTSLP1-m-mFc was diluted to 2 μg/mL with 1×HBS-EP buffer, and was injected at 10 μL/min for 12 s. Approximately 80 RU of hTSLP1-m-mFc was captured by the anti-mFc antibody. […] Two molecules were sequentially injected using a double injection mode of Biacore T200. […] Each of the molecules was injected for 90 s. The surface of the chip was regenerated at the end of the injection by injecting 10 mM glycine-HCl (pH 1.7) at 10 μL/min for 30 s. The Y-axis reporting points for the double baselines were zeroed using Biacore T200 evaluation software version 3.0, and then the RU values were plotted against times using GraphPad software.

[4] = target: B4; assay: SPR (Biacore T200): hTSLP1-m-mFc captured (about 80 RU) by anti-mFc antibody on CM5, antibody at 50 µg/mL [continued) C]
Protocol: as §2

[5] = target: T2, hTSLP:hTSLPR complex (hTSLP1-m-mFc with …); assay: SPR (Biacore T200): chip surface with hTSLP1-m-mFc captured by anti-mFc antibody and loaded with hTSLPR-ECD, antibody at 50 µg/mL injected before hIL-7Rα-ECD [continued) B]
Protocol: as §1

[6] = target: B4; assay: SPR (Biacore T200): hTSLP1-m-mFc captured (about 80 RU) by anti-mFc antibody on CM5, antibody at 50 µg/mL [continued) D]
Protocol: as §2

[7] = target: T2, hTSLP:hTSLPR complex (hTSLP1-m-mFc with …); assay: SPR (Biacore T200): chip surface with hTSLP1-m-mFc captured by anti-mFc antibody and loaded with hTSLPR-ECD, antibody at 50 µg/mL injected before hIL-7Rα-ECD [continued) C]
Protocol: as §1

[8] = target: T1, extracellular domain of human TSLP …; assay: SPR (Biacore T200): hTSLP1-m-mFc captured (about 80 RU) by anti-mFc antibody on CM5, buffer then hTSLPR-ECD at 100 µg/mL
Protocol: as §2

Binder: B1
Kd [1]: 2.75 nM | binding result [2]: binds | binding result [3]: binds

Binder: B2
binding result [4]: binds | binding result [5]: binds

Binder: B3
binding result [6]: binds | binding result [7]: binds

Binder: B4
binding result [8]: binds
